± gives the uncertainty stated by the source.
Test: amyloid nucleation score (Sup35N fusion, yeast selection) (log enrichment); library NNK1; higher = more nucleation; inactive = no reads after selection
Outline: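 The nucleation score is a DiMSum log enrichment of output over input reads, centred on the mode score of non-aggregating sequences. Sequences under 100 input reads were excluded, and reads came from Illumina sequencing of plasmid inserts. Psi-negative yeast expressing Sup35N fused to peptides of 20 random codons were induced with 100 μM copper sulfate for 24 hours and grown 7 days at 30°C on medium lacking adenine and uracil. Random libraries had three technical output replicates.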

Q: With LSRFRLFSYMYVLHKCNMGM as the substance, how does the amyloid nucleation score read?
A: -0.777 ± 1.2

Q: With LSRTKGYC as the substance, how does the amyloid nucleation score read?
A: 0.558 ± 0.33

Q: For LSSDADFKNNSLFRESDKYV, which amyloid nucleation score is on record?
A: -0.297 ± 0.22

Q: For LSSTLCSIVF, which amyloid nucleation score is on record?
A: 0.051 ± 0.57

Q: Which amyloid nucleation score does the source give for LSTKKTQTMRRVW here?
A: 0.404 ± 0.44

Q: With LSTPYHQWLLAGRSRWASRK as the substance, how does the amyloid nucleation score read?
A: 0.609 ± 0.49

Q: Which amyloid nucleation score does the source give for LTEIVYTVGAEGTLWRSGAA here?
A: 0.298 ± 0.45

Q: For LTGCLNEYGVSNFMEVRVFR, which amyloid nucleation score is on record?
A: -1.88 ± 2.7

Q: Which amyloid nucleation score does the source give for LTGRVFRSYRYGCTGQIAVD here?
A: -0.624 ± 0.56

Q: For LTISTYSCWGEF, which amyloid nucleation score is on record?
A: 0.456 ± 0.66

Q: With LTMLYMLLCDNSLMRDILPD as the substance, how does the amyloid nucleation score read?
A: 0.951 ± 0.88

Q: For LTRDEGPIEDKNVEARFRVS, which amyloid nucleation score is on record?
A: 0.098 ± 0.31

Q: Which amyloid nucleation score does the source give for LTRDLMCEPVLCGLLPVSGR here?
A: 0.314 ± 1.4

Q: With LTRGQSLPMCATSVFEEYSH as the substance, how does the amyloid nucleation score read?
A: 0.325 ± 0.43

Q: Which amyloid nucleation score does the source give for LTRVWSVTCVCSFGRPYK here?
A: 2.13 ± 0.27

Q: With LTSCASLWEDRVVLSCLPGG as the substance, how does the amyloid nucleation score read?
A: inactive

Q: For LTSTDISMGRCAVHQSYLFK, which amyloid nucleation score is on record?
A: 2.69 ± 0.29

Q: Which amyloid nucleation score does the source give for LTVGYSRYIPVRYGF here?
A: -1.08 ± 0.43

Q: With LTVVTAAFRATMVEHIL as the substance, how does the amyloid nucleation score read?
A: -0.368 ± 0.4

Q: With LVALPMWIF as the substance, how does the amyloid nucleation score read?
A: 0.402 ± 0.41

Q: For LVCSLTDNYDEE, which amyloid nucleation score is on record?
A: 0.169 ± 0.97

Q: With LVFLTYSSASARIPLRI as the substance, how does the amyloid nucleation score read?
A: 0.267 ± 0.29

Q: Which amyloid nucleation score does the source give for LVGFSVSYKVSENFCSTL here?
A: inactive

Q: Which amyloid nucleation score does the source give for LVGMCNHTYDS here?
A: 0.998 ± 0.66

Q: Which amyloid nucleation score does the source give for LVGTTRLMRFWSRVMT here?
A: -0.171 ± 0.41

Q: For LVISSRREKR, which amyloid nucleation score is on record?
A: 0.009 ± 0.57

Q: For LVLSVFWRNVVWAINLAVVS, which amyloid nucleation score is on record?
A: -0.521 ± 0.31

Q: For LVMTNIVLRSVKERVHRLLR, which amyloid nucleation score is on record?
A: -0.46 ± 0.81

Q: Which amyloid nucleation score does the source give for LVPNLLVHGVYY here?
A: -2.39 ± 2.4

Q: With LVPVWARLR as the substance, how does the amyloid nucleation score read?
A: -0.686 ± 0.65

Q: Which amyloid nucleation score does the source give for LVRLVVLLKEPGEDRFIIEH here?
A: -0.427 ± 0.79

Q: With LVRRFLSWRIQSLDPIKK as the substance, how does the amyloid nucleation score read?
A: -0.425 ± 0.76

Q: For LVRWSLLRFFL, which amyloid nucleation score is on record?
A: 1.89 ± 0.59

Q: With LVSMVWLPM as the substance, how does the amyloid nucleation score read?
A: 0.167 ± 0.84

Q: For LVTDPWISTLSSFHLWGGFM, which amyloid nucleation score is on record?
A: 0.887 ± 0.7

Q: For LVTMLLNKYIVNRSHDGVRI, which amyloid nucleation score is on record?
A: 0.966 ± 0.49

Q: For LVTRGFEVRGDHQVIKYFLA, which amyloid nucleation score is on record?
A: -0.6 ± 0.49

Q: Which amyloid nucleation score does the source give for LVVFLNC here?
A: -0.607 ± 0.39

Q: Which amyloid nucleation score does the source give for LVVQLYS here?
A: -0.336 ± 0.62

Q: With LVVYRSKQRSYCCM as the substance, how does the amyloid nucleation score read?
A: -0.359 ± 1.9

Q: Which amyloid nucleation score does the source give for LWCCGGAFHSTDLGSAGLIM here?
A: 0.372 ± 1.4

Q: Which amyloid nucleation score does the source give for LWFSYATCICIPRIPSNC here?
A: 6.26 ± 0.071

Q: For LWLRSLIVYYNSFVDMGGCA, which amyloid nucleation score is on record?
A: 0.549 ± 0.3

Q: For LWLRYGL, which amyloid nucleation score is on record?
A: 0.415 ± 0.72

Q: Which amyloid nucleation score does the source give for LWRNKTHISVLQRGQVYHQT here?
A: 0.182 ± 0.57

Q: Which amyloid nucleation score does the source give for LWSYRDFRQVSTELN here?
A: -1.15 ± 2.7

Q: With LWVTRRPVGGFMW as the substance, how does the amyloid nucleation score read?
A: 0.721 ± 0.79

Q: Which amyloid nucleation score does the source give for LWWSSSLLASTAQCQGTGFM here?
A: -0.255 ± 0.76

Q: With LWWYFHRTL as the substance, how does the amyloid nucleation score read?
A: -0.168 ± 0.65

Q: With LYAAYCRQGTTHAIR as the substance, how does the amyloid nucleation score read?
A: -0.389 ± 0.54

Q: Which amyloid nucleation score does the source give for LYCNVISILACFVTTIRGRG here?
A: 3.64 ± 0.16

Q: For LYFQAFHYQQWCIWFYFYIL, which amyloid nucleation score is on record?
A: 1.42 ± 0.49

Q: With LYHIGIGLKRSFNDAYV as the substance, how does the amyloid nucleation score read?
A: 0.038 ± 0.44

Q: With LYIGIPYVGVWNL as the substance, how does the amyloid nucleation score read?
A: 0.282 ± 1.2

Q: For LYKDGQGSKEAIVSRVDCMS, which amyloid nucleation score is on record?
A: 0.892 ± 0.25

Q: Which amyloid nucleation score does the source give for LYLSWSFSALSV here?
A: -0.593 ± 1.2

Q: For LYNFVGSNRIRFASCTQLLC, which amyloid nucleation score is on record?
A: 1.87 ± 0.38

Q: Which amyloid nucleation score does the source give for LYPMGYVRRCI here?
A: -0.29 ± 0.54

Q: For LYQCRNDCCYDWMLWYTWRS, which amyloid nucleation score is on record?
A: 0.505 ± 0.34

Q: For LYRDSLKLF, which amyloid nucleation score is on record?
A: -0.725 ± 0.49

Q: Which amyloid nucleation score does the source give for LYRSLLN here?
A: -0.23 ± 1.1

Q: With LYWSPVWM as the substance, how does the amyloid nucleation score read?
A: -0.232 ± 1.5

Q: With LYWSQIEVVNPQTTEGLNRD as the substance, how does the amyloid nucleation score read?
A: -0.528 ± 0.61

Q: With MALLARFRGAFLVCSGFIAC as the substance, how does the amyloid nucleation score read?
A: -1.56 ± 2.4

Q: Which amyloid nucleation score does the source give for MARVC here?
A: -1.56 ± 2.4

Q: For MASTESNPIKLLKVHLKYTS, which amyloid nucleation score is on record?
A: -0.97 ± 1.4

Q: With MAVSNLSDLRLMSMRHFS as the substance, how does the amyloid nucleation score read?
A: -0.794 ± 0.95

Q: For MCIFICLPVTVYDNIFHSFL, which amyloid nucleation score is on record?
A: 6.22 ± 0.096

Q: For MCLTRSSLEVRQVTIVMWSG, which amyloid nucleation score is on record?
A: 0.387 ± 0.52

Q: Which amyloid nucleation score does the source give for MCPSIQCYNNYILLQRSVIR here?
A: 7.08 ± 0.073

Q: Which amyloid nucleation score does the source give for MCSERMGFFIVSGVVLKLTH here?
A: 0.814 ± 0.57

Q: With MCSSKPSGPLAVN as the substance, how does the amyloid nucleation score read?
A: -1.02 ± 0.52

Q: With MDAFTNAWVMGWCMLHCARG as the substance, how does the amyloid nucleation score read?
A: 0.524 ± 0.7

Q: For MDCCYYFFLIF, which amyloid nucleation score is on record?
A: 4.15 ± 0.052

Q: Which amyloid nucleation score does the source give for MDKSELK here?
A: 0.128 ± 0.86

Q: With MDLGRMSSGFMRSNMNKKVR as the substance, how does the amyloid nucleation score read?
A: 0.519 ± 0.4

Q: Which amyloid nucleation score does the source give for MDPIPREAQVKVLSSHTTIG here?
A: 0.606 ± 0.53

Q: For MDRDASYHGYIGHLLSWIGM, which amyloid nucleation score is on record?
A: 0.886 ± 1.1

Q: Which amyloid nucleation score does the source give for MDRIRFLFFW here?
A: 0.448 ± 0.69

Q: With MENEWIVTSCFLFWINFYSV as the substance, how does the amyloid nucleation score read?
A: 4.23 ± 0.072

Q: Which amyloid nucleation score does the source give for MENISLINGLETMYPIDRLT here?
A: -2.15 ± 2.4

Q: For MERPGNCVGWRRCPLHVTNG, which amyloid nucleation score is on record?
A: -0.292 ± 1.2

Q: With MEWDAYVMI as the substance, how does the amyloid nucleation score read?
A: 0.442 ± 0.84

Q: For MFAWLDDLFRY, which amyloid nucleation score is on record?
A: -0.3 ± 0.38

Q: For MFCKAVSKERWMV, which amyloid nucleation score is on record?
A: -0.269 ± 0.92

Q: With MFGKLLICYRLYK as the substance, how does the amyloid nucleation score read?
A: 0.084 ± 0.75

Q: With MFLNII as the substance, how does the amyloid nucleation score read?
A: -0.112 ± 0.74

Q: For MFQVVGRYNGVFLVTEPWTC, which amyloid nucleation score is on record?
A: inactive
